Data: article PMC9491697 (PNAS Nexus, 2022)
“And” between values parts separate entries of the source, which are not always exact repeats. Equal values may be shown once.

Legend:
[1] = target: T1, human E-cadherin ectodomain EC1–5 with Twin-Strep and 8His tags (used for BLI) (Homo sapiens); assay: BLI; method taken from the construct description (E-cadherin used for BLI had an additional 8His tag); format and conditions not shown; settings: both partners purified
T1 construct: the range counts on the precursor; also called E-cadherin used for BLI; source: Expi293, transfected, purified from culture supernatant (StrepTactin XT)
T1 chain: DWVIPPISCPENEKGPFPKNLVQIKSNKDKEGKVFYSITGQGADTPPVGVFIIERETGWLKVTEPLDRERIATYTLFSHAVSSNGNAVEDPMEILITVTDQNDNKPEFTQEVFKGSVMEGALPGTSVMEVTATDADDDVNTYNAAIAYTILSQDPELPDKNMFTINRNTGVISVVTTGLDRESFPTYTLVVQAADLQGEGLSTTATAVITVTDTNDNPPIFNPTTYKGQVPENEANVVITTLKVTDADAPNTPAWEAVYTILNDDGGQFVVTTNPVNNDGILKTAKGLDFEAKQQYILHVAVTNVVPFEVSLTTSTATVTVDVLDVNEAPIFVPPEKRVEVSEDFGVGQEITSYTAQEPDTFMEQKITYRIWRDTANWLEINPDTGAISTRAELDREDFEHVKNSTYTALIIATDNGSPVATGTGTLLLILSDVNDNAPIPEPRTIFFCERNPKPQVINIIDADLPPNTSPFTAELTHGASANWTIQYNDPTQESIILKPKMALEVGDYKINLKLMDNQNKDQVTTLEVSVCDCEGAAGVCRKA

[2] = target: T2, human E-cadherin EC1-5-TwinStrep-8His (Homo sapiens, UniProt P12830); assay: BLI; E-cadherin EC1-5-TwinStrep-8His loaded on Ni-NTA sensors; Fabs in a 1:3 dilution series; Octet Red96, 23°C, 1000 rpm; 50 mM Tris pH 8.0, 150 mM NaCl, 3 mM CaCl2, 0.25 mg/mL BSA, 0.005% Tween-20; 1:1 binding global fit; settings: both partners purified
T2 construct: human E-cadherin extracellular domains EC1-5, residues 155 to 698; also called hEC1-5-TS-8His; hE-EC15-TS-8H; source: Expi293, transfected, purified from supernatant (StrepTactin XT); not shown: Twin-Strep, C-terminal, kept; 8His, C-terminal, kept

B1: 19A11 Fab (activating antibody to human E-cadherin) (Fab, V domains shown)
VH: QVQLKESGPGLVAPSQSLSITCTVSGFSLSRYGVHWVRQPPGKGLEWLGMMWGGGNTDYNSALKSRLSISKDNSKSQVFLKMNSLQTDDTAMYYCASSNYVLGYAMDYWGQGTSVTVSS
VL: DIVMTQSPSSLAMSVGQKVTMNCKSSQSLLNSSNQKNYLAWYQQKPGQSPKLLIYFTSTRGSGVPDRFIGSGSGTDFTLTISSVEAEDLADYFCQQHYRTPHTFGGGTKVEIK
notes: The 6His form was used for the crystal complex; Purified on a murine kappa light chain resin; also called 19A11-6His Fab; source: ExpiCHO, transfected, purified (CaptureSelect LC-kappa (mur) and Ni-NTA, or StrepTactin XT); ConA-cleared for crystallography
B1 showed a Kd [1] of about 6.5 nM.

B2: 66E8 Fab (Fab, V domains shown)
VH: EVQLQQSGPELVKPGASVKISCKASGYSFTGYFMNWVKQSHGKSLEWIGRINPYNGDTFYKQRFKGKATLTVDKSSSTVHMDLLSLTSEDSAVYYCGRGNYYFDYWGQGTTLTVSS
VL: DVQITQSPSYLAASPGETITINCRTSKNISKYLAWYQEKPGKTNKLLIYSGYTLQSGIPSRFSGSGSGTDFTLTISSLEPEDFAMYYCQQHNEYPYTFGGGTKLEIK
notes: heavy chain of the 66E8 Fab in PDB 6VEL; light chain of the 66E8 Fab in PDB 6VEL; Fab as used in BLI and analytical SEC; source: ExpiCHO, transfected, purified
For B2, the Kd [2] was 90.1 nM and 96.5 nM and 91.8 nM and 92.8 nM.

B3: 66E8 Fab (activating antibody to human E-cadherin) (Fab, V domains shown)
VH: B2 VH
VL: B2 VL
notes: source: ExpiCHO, transfected, purified (CaptureSelect LC-kappa (mur) and Ni-NTA, or StrepTactin XT); kifunensine and Endo Hf for crystallography
B3 gave a Kd [1] of about 100 nM.
